According to patent US7807629 (ALCON RESEARCH, dated 2010):
Square brackets hold non-standard residues; d marks the D form. Ends that are not written are not given here. Hyp = O=C(O)[C@@H]1C[C@@H](O)CN1

Molecular target: T1, human bradykinin B2 receptor (human, UniProt P30411 1-391)
T1 sequence (looked up): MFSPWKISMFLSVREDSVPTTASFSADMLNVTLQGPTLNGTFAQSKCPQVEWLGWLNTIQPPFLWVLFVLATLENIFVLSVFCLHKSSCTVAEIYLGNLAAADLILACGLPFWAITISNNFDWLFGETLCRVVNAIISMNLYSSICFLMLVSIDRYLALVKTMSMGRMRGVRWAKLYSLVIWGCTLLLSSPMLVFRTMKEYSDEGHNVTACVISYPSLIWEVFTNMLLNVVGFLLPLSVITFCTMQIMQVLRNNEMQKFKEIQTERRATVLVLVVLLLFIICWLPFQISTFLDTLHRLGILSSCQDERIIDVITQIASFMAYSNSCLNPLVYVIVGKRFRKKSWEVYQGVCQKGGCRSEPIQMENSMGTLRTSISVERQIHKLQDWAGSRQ
Test: cell-based or functional assay

**Q.** For KRPPGFSPFR [Lys-BK], which “[Ca^2+]i mobilization, Agonist Potency (EC50), h-CM cells” value is on record?
**A.** 3.2 nM

**Q.** And the “[Ca^2+]i mobilization, Agonist Potency (EC50), h-NPE cells” value (from here on “[Ca^2+]i mobilization … h-NPE cells”)?
**A.** 19.6 nM

**Q.** And the “[Ca^2+]i mobilization, Agonist Potency (EC50), h-TM cells” value (from here on “[Ca^2+]i mobilization … h-TM cells”)?
**A.** 1.9 nM

**Q.** For MKRPPGFSPFR [Met-Lys-BK], which “[Ca^2+]i mobilization, Agonist Potency (EC50), h-CM cells” value is on record?
**A.** 16.1 nM

**Q.** What about the “[Ca^2+]i mobilization … h-NPE cells” value of the same binder?
**A.** 125 nM

**Q.** And the “[Ca^2+]i mobilization … h-TM cells” value?
**A.** 6.5 nM

**Q.** RP[Hyp]GFSPFR [Hyp^3-BK] was tested. Which “[Ca^2+]i mobilization … h-NPE cells” value did it give?
**A.** 6 nM

**Q.** And the “[Ca^2+]i mobilization … h-TM cells” value?
**A.** 0.9 nM
